Tested on: MS2 coat protein
Experiment: apparent KD of MS2 coat protein; designed switch direction (-1 OFF switch, 1 ON switch): -1; higher = weaker reporter binding
Outline: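 Designed RNA switches sharing common flanks were transcribed on Illumina chips by stalled E. coli RNA polymerase. They were titrated with SNAP-549-labelled MS2 coat protein, from 0.7 or 1.5 nM doubling to 3 µM, in Tris-HCl pH 7.5 buffer with KCl, MgCl2, BSA, DTT, tRNA and Tween-20. Titrations ran without input, with 200 uM small-molecule ligand, or with an oligonucleotide input. The apparent KD of each design is the median over its clusters, after curve-fitting of normalised cluster fluorescence.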

[1] = input ligand: microRNA oligo, concentration not stated
[2] = Eterna round: R95, input ligand: FMN 200 uM
[3] = Eterna round: R95, input ligand: microRNA oligo, concentration not stated
[4] = Eterna round: R95, input ligand: none

Sequence: AACGCGUGAGGAUAUUGAGGUCUAAAAUGGUAACAUGACCACGAGAAGGCACAUGAGGAUCACCCAUGUUCCCG [Eternabot (L2) Solution 49] (Eterna round: R97, puzzle: Exclusion 4)
- apparent KD of MS2 coat protein (input ligand: FMN 200 uM): 85.1 nM
- apparent KD of MS2 coat protein (input ligand: none): 17.8 nM

Sequence: AACGUGUAAGGAUAUCUGCUUAUGCUCAGCGAUACGCUGAUAGAGAAGGUACAUGAGGAUCACCCAUGUUCCAA [EX4 A.17] (Eterna round: R97, puzzle: Exclusion 4)
- apparent KD of MS2 coat protein (input ligand: FMN 200 uM): 20.4 nM
- apparent KD of MS2 coat protein (input ligand: none): 17.5 nM

Sequence: AACUAGUCAGGAUAUACGAACAUGUCAAAAAACAUGAAGGGACAUGAGGAUCACCCAUGUAGAAGGGACUAGCA [74%, Web mod - With 3 less G's] (Eterna round: R96, puzzle: Exclusion 2)
- apparent KD of MS2 coat protein [1]: 29.3 nM

Sequence: AACUCUGAGAAGGAUAUUCAAUGGGAAACGAUAGAAGAAGGUUUCACAUGAGGAUCACCCAUGUCAAAUAGUGA [EX6 #72] (Eterna round: R97, puzzle: Exclusion 6)
- apparent KD of MS2 coat protein (input ligand: FMN 200 uM): 178 nM
- apparent KD of MS2 coat protein (input ligand: none): 173 nM

Sequence: AACUCUGAGGAGGAUAUACAGUGCGAAAGGACAGUAGAAGGCUUCACAUGAGGAUCACCCAUGUCGAAUAGUGA [EX6 #78] (Eterna round: R97, puzzle: Exclusion 6)
- apparent KD of MS2 coat protein (input ligand: FMN 200 uM): 68 nM
- apparent KD of MS2 coat protein (input ligand: none): 51.9 nM

Sequence: AACUGGACAGGAUAUGUACUUGAGCACUUGAGGAUCACCCAAGUCAUCAAGUACUCAGGCACAGAAGGGUUUAUGA [jl-ex5.4.61 ViennaUCT mod] (Eterna round: R97, puzzle: Exclusion 5)
- apparent KD of MS2 coat protein (input ligand: FMN 200 uM): 142 nM
- apparent KD of MS2 coat protein (input ligand: none): 132 nM

Sequence: AACUGGACAGGAUAUGUACUUGAGCACUUGAGGAUCACCCAAGUCAUCAAGUACUCAGGCACAGAAGGGUUUAUUU [jl-ex5.4.69 ViennaUCT mod] (Eterna round: R97, puzzle: Exclusion 5)
- apparent KD of MS2 coat protein (input ligand: FMN 200 uM): 311 nM
- apparent KD of MS2 coat protein (input ligand: none): 200 nM

Sequence: AACUGGCGAGGAUAUACUUGGCAUAUAGCCUAAUUUCGGCUACUUGAGGAUCACCCAAGUAGAAGGUGCACGGC [Anlaxebe] (Eterna round: R97, puzzle: Exclusion 2)
- apparent KD of MS2 coat protein (input ligand: FMN 200 uM): 16.5 nM
- apparent KD of MS2 coat protein (input ligand: none): 15.1 nM

Sequence: AACUGUGAGGCAGGAUAUGAAGCAUGGGCCGCGUGAUAAUACAUGAGGAUCACCCAUGUAGGGAUUCAGAAGGGCCCAGAGCAC [Atusveer] (Eterna round: R96, puzzle: Exclusion NG 2)
- apparent KD of MS2 coat protein (input ligand: FMN 200 uM): 20.4 nM
- apparent KD of MS2 coat protein [1]: 11.5 nM
- apparent KD of MS2 coat protein (input ligand: none): 18.2 nM

Sequence: AAGAAACAUGAGGAUCACCCAUGUGAGGAUAUGAAAAAGAAAAGAAAAGAAAGAAGAAUCAGAAGGCACAAAGU [salish99-ex1_r3_089] (puzzle: Exclusion 1)
- apparent KD of MS2 coat protein [2]: 26.5 nM
- apparent KD of MS2 coat protein [3]: 25.9 nM
- apparent KD of MS2 coat protein [4]: 32.6 nM

Sequence: AAGAAACAUGAGGAUCACCCAUGUGAGGAUAUGAAAAAGAAAAGAAAAGAAAGAAGGGUCAGAAGGCACAAAGG [salish99-ex1_r3_028] (puzzle: Exclusion 1)
- apparent KD of MS2 coat protein [2]: 24 nM
- apparent KD of MS2 coat protein [3]: 25.3 nM
- apparent KD of MS2 coat protein [4]: 35.5 nM

Sequence: AAGAAACAUGAGGAUCACCCAUGUGAGGAUAUGAGCAAGAAAAGAAAAGAAAGAAGACUCAGAAGGCACAAAGG [salish99-ex1_r3_072] (puzzle: Exclusion 1)
- apparent KD of MS2 coat protein [2]: 90.2 nM
- apparent KD of MS2 coat protein [3]: 110 nM
- apparent KD of MS2 coat protein [4]: 106 nM

Sequence: AAGAAACAUGAGGAUCACCCAUGUGAGGAUAUGAGCACGACCGUGAGGUCGAUAAGAAUCAGAAGGCACAUUAA [JL-ex1-4.55] (Eterna round: R97, puzzle: Exclusion 1)
- apparent KD of MS2 coat protein (input ligand: FMN 200 uM): 137 nM
- apparent KD of MS2 coat protein (input ligand: none): 41.8 nM

Sequence: AAGAAACAUGAGGAUCACCCAUGUGAGGAUAUGAUUAAGAAAAGAAAAGAAAGAAGAAUCAGAAGGCACAAAGG [salish99-ex1_r3_042] (puzzle: Exclusion 1)
- apparent KD of MS2 coat protein [2]: 258 nM
- apparent KD of MS2 coat protein [3]: 98.7 nM
- apparent KD of MS2 coat protein [4]: 108 nM

Sequence: AAGAAACGAGGAUAUACAAUUAAGAGAGAGAAGGAAAUGAGACAUGAGGAUCACCCAUGUAGAAGGCGUAAGAG [JR_Exclu2_Sub083] (puzzle: Exclusion 2)
- apparent KD of MS2 coat protein [2]: 28 nM
- apparent KD of MS2 coat protein [3]: 31.5 nM
- apparent KD of MS2 coat protein [4]: 28.2 nM

Sequence: AAGAAACGAGGAUAUACAGUUGAGUGAGAGAGGGUAGUGUUACAUGAGGAUCACCCAUGUAGAAGGCGUGAGAG [JR_Exclu2_Sub089] (puzzle: Exclusion 2)
- apparent KD of MS2 coat protein [2]: 52.7 nM
- apparent KD of MS2 coat protein [3]: 31.5 nM
- apparent KD of MS2 coat protein [4]: 32.7 nM

Sequence: AAGAAACGAGGAUAUACAGUUGAGUGAGGGAGGGUAGUGUUACAUGAGGAUCACCCAUGUAGAAGGCGUGAGAG [JR_Exclu2_Sub090] (puzzle: Exclusion 2)
- apparent KD of MS2 coat protein [2]: 24.8 nM
- apparent KD of MS2 coat protein [3]: 19.3 nM
- apparent KD of MS2 coat protein [4]: 25 nM

Sequence: AAGAACCCGGUAGGAUAUAUUGUGGGCAAACAUGGAACAACAUGAGGAUCACCCAUGUAAUUUAGGUAGAAGGGCCAAAAGAGA [Default title] (Eterna round: R96, puzzle: Exclusion NG 2)
- apparent KD of MS2 coat protein (input ligand: FMN 200 uM): 80.1 nM
- apparent KD of MS2 coat protein [1]: 51.6 nM
- apparent KD of MS2 coat protein (input ligand: none): 71.4 nM

Sequence: AAGAACGUCGGAGGAUAUCCAGCCAAGCCCGCAGGAGAAGGCCGGCGGUGGGAUGUGCUUCACAUGAGGAUCACCCAUGUUAAU [Onriti] (Eterna round: R96, puzzle: Exclusion NG 1)
- apparent KD of MS2 coat protein (input ligand: FMN 200 uM): 361 nM
- apparent KD of MS2 coat protein [1]: 64.6 nM
- apparent KD of MS2 coat protein (input ligand: none): 96.2 nM

Sequence: AAGAAGAAGUAAGGAUAUGAAGAUCUGGUGGUGACAUGAGGAUCACCCAUGUGAAAACGAUGAGAUCAGAAGGUAUAAGAAGAA [AK ExNG2-3.3] (Eterna round: R96, puzzle: Exclusion NG 2)
- apparent KD of MS2 coat protein (input ligand: FMN 200 uM): 116 nM
- apparent KD of MS2 coat protein [1]: 59.9 nM
- apparent KD of MS2 coat protein (input ligand: none): 89.4 nM

Sequence: AAGAAGAUCAAAGGAUAUGGAGCUGAAACGGAGCUAGAAGGUUGUCUAGUUUAACAUGAGGAUCACCCAUGUAGGUACCUCUAA [AK ExNG1-V2-1] (Eterna round: R96, puzzle: Exclusion NG 1)
- apparent KD of MS2 coat protein (input ligand: FMN 200 uM): 850 nM
- apparent KD of MS2 coat protein [1]: 719 nM
- apparent KD of MS2 coat protein (input ligand: none): 713 nM

Sequence: AAGAGGUCAGGAUAUUGGGCGGAAAGGGAAAGGAAAGGGCCCAAGAAGGGACAUGAGGAUCACCCAUGUAAGAA [Excls4-I] (puzzle: Exclusion 4)
- apparent KD of MS2 coat protein [2]: 38.5 nM
- apparent KD of MS2 coat protein [3]: 33 nM
- apparent KD of MS2 coat protein [4]: 35.4 nM

Sequence: AAGAUGCGCGCAGGAUAUGGAGAGAAAGAAAGACCAGAAGGGCGGGUCACACAACAUGAGGAUCACCCAUGUGUGUGUUGCGAA [snuffleupagus] (Eterna round: R96, puzzle: Exclusion NG 1)
- apparent KD of MS2 coat protein (input ligand: FMN 200 uM): 9.29 nM
- apparent KD of MS2 coat protein [1]: 9.54 nM
- apparent KD of MS2 coat protein (input ligand: none): 12.2 nM

Sequence: AAGGGUGCUUUCAGAACGACAUGAGGAUCACCCAUGUAGACUGAGGAUAUCUACUUCUAAGGACGGGAGAAGGCAGUGUAAUGC [Ex NG3 #68] (Eterna round: R96, puzzle: Exclusion NG 3)
- apparent KD of MS2 coat protein (input ligand: FMN 200 uM): 23.1 nM
- apparent KD of MS2 coat protein [1]: 19.5 nM
- apparent KD of MS2 coat protein (input ligand: none): 21.6 nM

Sequence: AAGGGUGCUUUUAGAACGACAUGAGGAUCACCCAUGUAGACUGAGGAUAUCUACUCCUAAGGACCGGAGAAGGCAGUGUAAUGC [Ex NG3 #64] (Eterna round: R96, puzzle: Exclusion NG 3)
- apparent KD of MS2 coat protein (input ligand: FMN 200 uM): 57.8 nM
- apparent KD of MS2 coat protein [1]: 75 nM
- apparent KD of MS2 coat protein (input ligand: none): 55.9 nM

Sequence: AAGGUGUUAGGAUAUCGUAGUUUGAGGCAGACGGGAUUUUGCGAGAAGGAACAUGAGGAUCACCCAUGUAGGAU [JR_Exclu4_Sub040] (puzzle: Exclusion 4)
- apparent KD of MS2 coat protein [3]: 25.9 nM

Sequence: AAGUACCGUCACGAUAGUGAUGGUACAACAAGCAAAUGUACAUGAGGAUCACCCAUGUCCUCUUUUGCUCGUCUUAU [Sensor 3 - 94] (puzzle: Sensor v3, turn-off variant 2)
- apparent KD of MS2 coat protein [2]: 53.3 nM
- apparent KD of MS2 coat protein [3]: 28.9 nM
- apparent KD of MS2 coat protein [4]: 53.8 nM

Sequence: AAGUAUAGAGGAUAUAGUGAGUACUACAUGAGGAUCACCCAUGUUCUUCAAAACGUAUUUCUAGAAGGCUGUUAAA [EX-5 Malc#20] (puzzle: Exclusion 5)
- apparent KD of MS2 coat protein [3]: 43.5 nM

Sequence: AAGUCGACGGUGAGGAUAUUAGUUGAACGACAGAUUAAGAAGGUACAUGAGGAUCACCCAUGUGGGUAACGUUG [Brourd's EX4 #77] (Eterna round: R97, puzzle: Brourd's mod of Exclusion 4)
- apparent KD of MS2 coat protein (input ligand: FMN 200 uM): 76.3 nM
- apparent KD of MS2 coat protein (input ligand: none): 107 nM

Sequence: AAGUCGACGGUGAGGAUAUUGGUUGAACGACAGAUCAAGAAGGCACAUGAGGAUCACCCAUGUGGGUAACGUCG [Brourd's EX4 #38] (Eterna round: R97, puzzle: Brourd's mod of Exclusion 4)
- apparent KD of MS2 coat protein (input ligand: FMN 200 uM): 34.5 nM
- apparent KD of MS2 coat protein (input ligand: none): 19.1 nM

Sequence: AAGUUGUGAGGAUAUACACAUCGUGCGGAAAGAUCCUUGUCACAUGAGGAUCACCCAUGUAGAAGGCGCGGUAU [Eternabot (L1) Solution 94] (Eterna round: R97, puzzle: Exclusion 2)
- apparent KD of MS2 coat protein (input ligand: FMN 200 uM): 530 nM
- apparent KD of MS2 coat protein (input ligand: none): 740 nM

Sequence: AAUAACAAGCAGAUCCUCCACAUGAGGAUCACCCAUGUGCUCGUCUUGUAAAGUACUAUCACGAAAGUGAUAGUACA (Eterna round: R97, puzzle: Sensor, turn-off variant 1)
- apparent KD of MS2 coat protein (input ligand: FMN 200 uM): 724 nM
- apparent KD of MS2 coat protein (input ligand: none): 718 nM

Sequence: AAUAACAAGCCGAUCCUCAACAUGAGGAUCACCCAUGUGCUCGUCUUGUAAAGUACUAUCACGAAAGUGAUAGUACA (Eterna round: R97, puzzle: Sensor, turn-off variant 1)
- apparent KD of MS2 coat protein (input ligand: FMN 200 uM): 319 nM
- apparent KD of MS2 coat protein (input ligand: none): 419 nM

Sequence: AAUAACAAGCCGAUCCUUAACAUGAGGAUCACCCAUGUGCUCGUCUUGUAAAGUACUAUCACGAAAGUGAUAGUACA (Eterna round: R97, puzzle: Sensor, turn-off variant 1)
- apparent KD of MS2 coat protein (input ligand: FMN 200 uM): 25.1 nM
- apparent KD of MS2 coat protein (input ligand: none): 22.7 nM

Sequence: AAUAACAGAGGAUAUACUAUUUUAUGUAUUUAUUAUUUUAAACAUGAGGAUCACCCAUGUAGAAGGCUGAUUGA [JMF 70] (puzzle: Exclusion 2)
- apparent KD of MS2 coat protein [3]: 28.5 nM

— the supplement of paper PMC9170038
